Reference: patent US20230192896A1 (BIOVERATIV THERAPEUTICS, published 2023)

Target: T1, FIXa-SM (FIXa+EGR-CMK) (human, UniProt P00740 47-191; P00740 227-461, EGR-CMK (L-Glu-Gly-Arg chloromethyl ketone) covalently bound to the active site)
T1 construct: BLI antigen bought from Haematologic Technologies (HCIXA-EGR); also called FIXa with substrate mimic
Assay: BLI; class meaning: paragraph 914

| Binder | binding result |
| --- | --- |
| BIIB-9-460 (antibody, V domains shown, IgG) VH: QVQLVQSGAEVKKPGASVKVSCKASGYTFTSYYMHWVRQAPGQGLEWMGIINPSGGSTSYAQKFQGRVTMTRDTSTSTVYMELSSLRSEDTAVYYCARDISTDGESSLYYYMDVWGKGTTVTVSS VL: EIVMTQSPATLSVSPGERATLSCRASQSVSSNLAWYQQKPGQAPRLLIYGASTRATGIPARFSGSGSGTEFTLTISSLQSEDFAVYYCQQHDNFPFTFGGGTKVEIK | binds |
| BIIB-9-469 (antibody, V domains shown, IgG) VH: QVQLVQSGAEVKKPGASVKVSCKASGYTFTSYYMHWVRQAPGQGLEWMGIINPSGGSTSYAQKFQGRVTMTRDTSTSTVYMELSSLRSEDTAVYYCARDLGYGRSYDFDLWGRGTLVTVSS VL: EIVMTQSPATLSVSPGERATLSCRASQSVSSNLAWYQQKPGQAPRLLIFGASTRATGIPARFSGSGSGTEFTLTISSLQSEDFAVYYCQQSNNFPFTFGGGTKVEIK | binds |
| BIIB-9-461 (antibody, V domains shown, IgG) VH: QVQLVQSGAEVKKPGASVKVSCKASGYTFTSYYMHWVRQAPGQGLEWMGIINPSGGSTSYAQKFQGRVTMTRDTSTSTVYMELSSLRSEDTAVYYCARGPTDSSGYLDMDVWGKGTTVTVSS VL: EIVMTQSPATLSVSPGERATLSCRASQSVSSSLAWYQQKPGQAPRLLIYGASTRATGIPARFSGSGSGTEFTLTISSLQSEDFAVYYCQQHHHWPPTFGGGTKVEIK | binds |
| BIIB-9-558 (antibody, V domains shown, IgG) VH: EVQLVESGGGLVKPGGSLRLSCAASGFTFSSYSMNWVRQAPGKGLEWVSSISSSSSYIYYADSVKGRFTISRDNAKNSLYLQMNSLRAEDTAVYYCARSYGYGYHDFDLWGRGTLVTVSS VL: DIQMTQSPSTLSASVGDRVTITCRASQSIGSWLAWYQQKPGKAPKLLIYKASSLESGVPSRFSGSGSGTEFTLTISSLQPDDFATYYCQQAGSYSFTFGGGTKVEIK | binds |
| BIIB-9-465 (antibody, V domains shown, IgG) VH: QVQLVQSGAEVKKPGASVKVSCKASGYTFTSYYMVWVRQAPGQGLEWMGIINPSGGSTSYAQKFQGRVTMTRDTSTSTVYMELSSLRSEDTAVYYCARSPTDGYYFDLWGRGTLVTVSS VL: DIQMTQSPSTLSASVGDRVTITCRASQSINSWLAWYQQKPGKAPKLLISDASSLESGVPSRFSGSGSGTEFTLTISSLQPDDFATYYCQQYEIFPFTFGGGTKVEIK | binds |
| BIIB-9-440 (antibody, V domains shown, IgG) VH: QLQLQESGPGLVKPSETLSLTCTVSGGSISSSDYYWGWIRQPPGKGLEWIGSIYYSGSTYYNPSLKSRVTISVDTSKNQFSLKLSSVTAADTAVYYCARSPRHKVRGPNWFDPWGQGTLVTVSS VL: not shown | binds |

Results, then the binder that gave them:

| binding result | Binder |
| --- | --- |
| binds | BIIB-9-425 (antibody, V domains shown, IgG) VH: QVQLVQSGAEVKKPGASVKVSCKASGYTFTSYYMHWVRQAPGQGLEWMGIINPSGGSTSYAQKFQGRVTMTRDTSTSTVYMELSSLRSEDTAVYYCAREPTWDVAYDYWGQGTLVTVS VL: EIVLTQSPGTLSLSPGERATLSCRASQSVSSDYLAWYQQKPGQAPRLLIYGASSRATGIPDRFSGSGSGTDFTLTISRLEPEDFAVYYCQQYDSHPYTFGGGTKVEIK |
| binds | BIIB-9-415 (antibody, V domains shown, IgG) VH: QVQLVQSGAEVKKPGASVKVSCKASGYTFTSYYMHWVRQAPGQGLEWMGIINPSGGSTSYAQKFQGRVTMTRDTSTSTVYMELSSLRSEDTAVYYCARDGLSSGYYWDNWGQGTLVTVSS VL: DIQMTQSPSSVSASVGDRVTITCRASQGIDSWLAWYQQKPGKAPKLLIYAASSLQSGVPSRFSGSGSGTDFTLTISSLQPEDFATYYCQQGDAFPFTFGGGTKVEIK |
| binds | BIIB-9-564 (antibody, V domains shown, IgG; also called BIB-4-564) VH: QVQLQESGPGLVKPSETLSLTCAVSGYSISSGYYWAWIRQPPGKGLEWIGSIYHSGSTYYNPSLKSRVTISVDTSKNQFSLKLSSVTAADTAVYYCARDPGYSWEYFDYWGQGTLVTVSS VL: DIQMTQSPSSLSASVGDRVTITCRASQSISSYLNWYQQKPGKAPKLLIYAASSLQSGVPSRFSGSGSGTDFTLTISSLQPEDFATYYCQQSVAVPPTFGGGTKVEIK |
